The source of these data is the nanobody polyreactivity screen of Harvey et al. (2022).

A short description of the data set: yeast display, Sf9 membrane polyspecificity reagent, FACS + sequencing; frameworks hold sequencing errors. The gist of the method: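 Using colony PCR, genes from sorted yeast display clones were amplified, then sequenced on MiSeq at 2 × 250 and filtered by CDR length. The clones had been stained with 10% biotinylated, detergent-solubilized Sf9 membrane reagent for 1 hour at 4 °C and sorted by FACS into low and high (top ~1%) gates on anti-HA and streptavidin fluorescence. Polyreactivity labels come from the gate of origin.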
As to “QVQLVESGGGLVQAGASLRLSCAASGRTFVGYAMGWYRQAPGKERELVAAISKSSGSTYYADSVKVRFTISRDNAKNTVYLQMNSLKPEDTAVYYCNAARRQCNRYTYDYWGQGTLVTVSS”, the “polyreactivity (PSR sort gate)” value is recorded as “high polyreactivity”.
As for “QVQLVESGGGLVQAGGSLRLSCAASGSIFDYYAMGWYRPAPVKERELVAAISDSGSTYYADSVKGRFTISRDNAKNTVYLQMNSLKPEDTAVYYCAAVLWSPYLSEPLETYEYWGQGTQVTVSS”, the “polyreactivity (PSR sort gate)” value is given as “low polyreactivity”.
“QVHLVESGGGLVEAGGSLRISCAAYGFIFGYNAMGWYRQAPGKERELVARINSGGNTNYADSVKGRFTISRDNAKNTVYLQMNSLKPEDTAVYYCARDASNRYDYWGQGNQVTVSS”: the “polyreactivity (PSR sort gate)” value is “low polyreactivity”.
Regarding “QVQLVESGGGLVQAGGSLRLSCAASGSTLGGNAMGWYRQEPGKERELGAAITSSAGSTYYADSVKGRYTISRDNAKNTVYLQMNSLQPEDTAVYYCAADYSRDEYDYWGQGTEVTVSS”, the “polyreactivity (PSR sort gate)” value was “low polyreactivity”.
As for “QVQLVESGGGLVQAGGSLRLSCAASGSIFPNNAMGWYRQAPGKERELVAAISSSARTYYADSVKGRFTISRDNAKNTVYLQMNSLKPEDTAVYYCAARWYGRFLMGYWGQGTQVTVSS”, the “polyreactivity (PSR sort gate)” value is listed as “high polyreactivity”.
In the case of “QVQLEESGGGLVQAGGSLRLSCAASGRTFIKYAMGWYRQAPVNESELVAAITYSAGSTSYADSVKGRFTISRDNAKNTVYLQMNSRKPVDTAVYYCARRTRSYGYRSDYYYWGQGTQVTVSS”, the “polyreactivity (PSR sort gate)” value was “low polyreactivity”.
Turning to “QVQLVETGAGLVQAGGSLRLSSAASGFIFYPYAMGWYRQAPGKERELVAVINKSSDNTYYADSVKGRFTISRDNAKNTVYLQMNSLKPEDTAVYYCAAEYVFYSRFFTEEYWGQGTQVTVSS”, the “polyreactivity (PSR sort gate)” value is listed as “low polyreactivity”.
On to “QVQLVESGGGLVQAGGSLRLSCAASGSIFKSYAMGWYRHAPWKERELVASISSRGSSTNYADSVKGRFTISRDNAKITVYLQMNSLKPEDTEGYYCAAEVYRGKYWSTYRGGDYWGQGTQVTVSS”, for which the “polyreactivity (PSR sort gate)” value is given as “high polyreactivity”.
Regarding “QVQLQESGGGLVQAGGSLRLSCAASGYISHADEMGWYRQAPGKEHELVASISNGGSTNYADSVKGRFTISRDNAKNTVYQQMNSLKSEYTAVYYCAALTGQVDIHYYWCQGTQVTVSS”, the “polyreactivity (PSR sort gate)” value is “low polyreactivity”.
Regarding “QVQLVESGGGLVQAGGSLRLSCAASGIILRRYAMGWYRQAPGKERELVARISYRGGRTNYADSVKGRFTISRDNAKNTVYLQMNSLKPEDTAVYYCAAVAWYYHEGTAYNYWGQGTQVTVSS”, the “polyreactivity (PSR sort gate)” value is “high polyreactivity”.
The result for “QVQLVESGGGLVQAGGSLRLICADYGITFRVNAMGWYRQAPGKERELVASISRSGGSTYYADSVKGRFTISRDNAKNTVYLQMNSLKPEDTAVYYCAAAQKVLFYGRWFDYWGQCTQVTVSS” reads “low polyreactivity”.
On to “QGQLVESGGGLVQAGGSLRLSCAASGSIFEGYVMGWYRQAPGKERELFATISFSGGSTYYADSVKGRFTISRDNAKNTGYLQMNSLKPVDTAVYFCADSVPYKFYSVVSVRYEYWGQGTQVTVSS”, for which the “polyreactivity (PSR sort gate)” value was “low polyreactivity”.
Regarding “QVQLVESGAGLVQAGGSLRLTCAASGIIFPFYAMGWYRQAPGKERELVAGITSGGDTYYADSVKGRFTISRDNAKNTVYLQMNSLKPEDTAVSYCAAVYRRQYGYWGQGTQVTVSS”, the “polyreactivity (PSR sort gate)” value is recorded as “high polyreactivity”.
As to “QVQLVESGRGLVQAGGSLRLSCAASASTFYYNAMGWYRQAPGKEREFVAGITSSGAGTYYADSVKGRFTISRDNAKKTVYLQMNSLKPEDTAVYYCAAVYRWEGRTYRYVYWGQGTQVTVSS”, the “polyreactivity (PSR sort gate)” value is “high polyreactivity”.
Consider “QVQLVESGGGLVQAGGSLRLSCAASGSIFKSYAMGWYRQPPGKERELVAAISWSGTSTYYADSVKGRFTISRDNAKNTVYLLMNSLKPEDTAVYYCNAVSVSSKRSDYWGQGTQVTVSS”, for which the “polyreactivity (PSR sort gate)” value is listed as “low polyreactivity”.
Regarding “QVQLVESGGGLVHAGGRLRLRCAASGSIFGYYAMAWYRHAPGKETELVAAISRRGGRTYYADSVKGRFTISRDNAKNTVYLQMNSLKPEDTAVYYCAKDRYYSELQYPYYRGDYWGQGTQVTVSS”, the “polyreactivity (PSR sort gate)” value is recorded as “high polyreactivity”.
In the case of “QVQLVESGGGLVQAGGSLRLSCAASGSTFYTNAMGWYRQAPGKEREFVAAISWSGSSTYADSVKGRFTISRDNAKNTVYLQMNSLKPEDTAVYYCAADWFKLRTDYYWGQGTQVTVSS”, the “polyreactivity (PSR sort gate)” value is reported as “low polyreactivity”.
The same measure for “QVQLVESGGGLVQAGGSLRLSCAASGSTFIRNAMGWYRQAPGKERELVAAITTDGSTDYADSVKGRFTISRDNAKNTVYLQMNSLKPEDTAVDYCNAEYRLDALSYDYLGQGTQVTVSS”: “low polyreactivity”.
For the sequence “QVQLVESGGGLVQAGGSLRLSCAASGSTFYIYAMGWYRQAPGKERELVAAITWSGGRTFYADSVKGRFTISRDNAKNTVYLHMNSLKPEDTAVYFCSARFWSDKTGSRYYYWGQGTQVTVSS”, the “polyreactivity (PSR sort gate)” value is recorded as “high polyreactivity”.
In the case of “QVQLVESGGGLVQAGGSLRLSCAASGRTFRLYAMGWYRQAPGKERELVARISRGGSTYYADSVKGRFTISRDNAKNTVYLQMNSLKPEDTAVYYCAAEGWGLSHRYDYWGQGTQVTVSS”, the “polyreactivity (PSR sort gate)” value is recorded as “high polyreactivity”.
On to “QVQLVESGGGLVQAGGSLRLSCAASGSTFPTYAMGRDRTAPGKEREMVAAIDWSDGSITYYADSVKGRFTISRDNAKNTVYLQMNSLKPEDTAVYYCAKDNSQYGWGYDYWGQGTQVTVSS”, for which the “polyreactivity (PSR sort gate)” value is reported as “low polyreactivity”.
Consider “QVQLVESGGGLVQAGGSHRLSCAASGSIFYPYPMGLYRQAPGKERELVAAITTRDDSTRYADSVKGRFTISRDNAKNTGYLQMNTLKPEDTAVYYCNTDYGPVFGQYYWYELDYWGQGTQVNVSS”, for which the “polyreactivity (PSR sort gate)” value is on record as “low polyreactivity”.
The result for “QVQLVESGGGLGQAGGSLRLSCAASGSIFYRNARGWYRQAPGKERELVASITSGGRTNYADSVKGRFTISRDNAKYSVYLQMNSLKPEDTAVFYCARGRASYTTSGPTPYTGYGYWRQGTQVTVSS” reads “low polyreactivity”; that for “QVQLVESGGGLVQAGGSLRLSCAASAWYAMGWYRQAPGKEREFVAAITFSGSSTYYADSVKGRFTISRDNAKNTVYLQMNSLKPEDTAVYYCNADWWEWGQGTQVTVSS”, “low polyreactivity”; that for “QVQLVESGGGLVQAGGSLRLSCAASGRIFKKNAMGWYRQAPGKERELVASITRGASTNYADSVKGRFTISRDNAKNTVYLQMNSLKPEDTAVYYCAAVITLNGDGPPSDYWGQGTQVTVSS”, “low polyreactivity”.
The same measure for “QVQLVESGRGLVQAGGSLRLSCAASGRIYRRNAIGWYRQAPGKERELVAAITWSDGSTYYADSVKGRFTISRDNAKNTVYFQMNSLKPEDTAVYYCNKVTRSPSEYDYWGQGTQVTVSS”: “high polyreactivity”; for “QVQLVETGGGLVQAGGSLRLSCAASGFTFPYNAMGWYRQAPGKERELVAAISSTGGITYYADSVKGRFTISRDNAKNTVYLQMNSLKPEDTAVYYCGWYDYWGQGTQVTVSS”: “low polyreactivity”; for “QVQLVESGGGLVQAGGSLRLSCAASGFTFRRYAMGWYRQAPGKERELVAVITTAGSTNYADSVKGRFTISRDNAKNTVYLQMNSLKPEDTAVYYCATDNGTRKRRYDYWGQGTQVTVSS”: “low polyreactivity”.
Regarding “QFQLVESGGGLVQAGGSLRLSCAASGRIFRGNAMGWYRQAPGKERELVAAILTGVSTYYADSVKGRFTISRDNAKNTVYLQMNSLKPEDTAVYYCAAERPSRRSGYEYWGQGTQVTVSS”, the “polyreactivity (PSR sort gate)” value was “low polyreactivity”.
Take “QVQLVESGGGVVQAGGSLRISCAASGSTFAANAMGWYRQAPGKERELVAAISTSGGRSYYADSVKGRFTISRDNAKNTLYLQMNSLKPEDSAGYYCAAYSRTSDRDFDYWGQGTQVTVSS”: the “polyreactivity (PSR sort gate)” value was “high polyreactivity”.
For “QVQLVESGGGLVQAGGSLRLSCAASGSTFDSYAMGWYRQAPGKERELVAAITNGGSTYYADSVKGRFTISRDNAKNTVYLQMNSLKPEDTAVYYCATDDYLLDYLYDYWGQGTQVTVSS”, the “polyreactivity (PSR sort gate)” value is “low polyreactivity”.
Turning to “QVQLVESGGGLVQAGGSLRLSCAASGRTFRTNVMGWYRQAPGKERELVAAISKRGGSTYYADSVKGRFTISRDNAKYTVYLQMNILNPEDTAGYYCAAVFSPYYDHQGDYWGQGTQVTVSS”, the “polyreactivity (PSR sort gate)” value was “high polyreactivity”.
Consider “QVQLVESGGGLVQAGGSLRLSCAASGGTFRYNAMGWYRQAPGKERELVAAIRWSGGRTYYADSVKGRFTISRDNAKNTVFLQINSLKPEDTAVYYCAALYRGYAVAASYYLWGLGTQVTVSS”, for which the “polyreactivity (PSR sort gate)” value was “high polyreactivity”.
With “QVQLVESGGGLVQAGGSLRLSCAASGRTFYLYAMGWYRQAPGKERELVAAITWRGGSTYYADSVKGRFTISRDNAKNTVYLQMNSLKPEDTAVYYCSAVTFFYYSAVRYEYYYWGQGTQVTVSS”, the “polyreactivity (PSR sort gate)” value is “high polyreactivity”.
With “QVQLVESGGGLVQAGGSLRLSCAASGGTRAHNAMGLYRQAPGKERELVAAISWRGGSTYYADSVKGRCTISRDNAKNTVYLQMNSLKPEDTAVYYCAKEQYVPDRPSFKNLNTYDYWGQGTQVTVSS”, the “polyreactivity (PSR sort gate)” value is “low polyreactivity”.
The same measure for “QVQLVESGGGLVQAGGSLRLRCAASGNTFAYYAMGWYRQAPGKERELVASITGSGTSTYYADSVKGRFTISRDNEKNTVYLQMNSLKPEDTAVYYCAKRYYYKWFGYWGQGTQVTVSS”: “high polyreactivity”; for “QVQLVESGGGLVQAGGSLRLSCAASGSIFTGYAMGWYRQAPGKERELVAAISNSGTSTYYADSVKGRFTISRDNAKNTVYLQMNSLKPEDTAVYYCNTVGHRWLSDDDYWGQGTQVTVSS”: “low polyreactivity”.
With “QVQLVESGGGLVQAGGSLRLSCAASGLIFPYYAMGWYRQAPGKERELVAAISGSGGRTYNADSVKWRFTISRDNAKNTVYLQMNSLKPEDPAVYYCAAAVLDRYTRYIWYIFDYWGQGTQVTVSS”, the “polyreactivity (PSR sort gate)” value was “high polyreactivity”.
Consider “QVQLVESGGGLVQAGGSLRVSCAASGRTFARYALAWYRQAPGKERELVAAISRGGTTNYADSVKGRFTISRDNAKNTVYLQMNSLKPEDTAVDYCNRDFHLSHLSSARLDYWGQGTQVTVSS”, for which the “polyreactivity (PSR sort gate)” value was “low polyreactivity”.
In the case of “QVQLVESGGGLVQAGGSLRLICAASGSIFVGYAMGWYRQAPGKERELVAAISSNGGSTYYAYSVKGRFTISRDNAKNTVYLQMNSLKPEDTAVYYCAAGVRRVYASGHGAYGYWGQGTQVTVSS”, the “polyreactivity (PSR sort gate)” value is reported as “low polyreactivity”.
For the sequence “QVQLVESGGGLVQAGGSLRLSCAASGITFIYYHMGWYRQAPGKERELVAAINWSGGRTYYADSVKGRFTISRDNAKNTVYVQMNSLIPEDTAVYYCAADSWRPVYLGYYWGQGTQVTVSS”, the “polyreactivity (PSR sort gate)” value was “high polyreactivity”.
